In patent US8507656B2, “Stabilized angiopoietin-2 antibodies and uses thereof” (MedImmune Limited, priority 2008, dated 2013):
Entries after “also recorded” stand apart in the source; their conditions may differ.

Legend:
H460 xenograft tumors = assay type: in vivo; settings: 3.19.3 10 mg/kg 2×wk i.p., AZD4877 10 mg/kg q4dx2 i.p., combination of both
Procedure: The anti-tumor activity of 3.19.3 was evaluated in combination with AZD4877 in the
H460 xenograft model of lung cancer. H460 cells were cultured in flasks as routine until the cells reached sub-confluence. Cell suspensions containing approximately 3×10E6 cells were injected subcutaneously into the right flank of male NCr nu/nu mice. When the tumor volume reached 200 mm^3, the mice were randomized in treatment groups of 8-10 mice and the treatments were initiated. 3.19.3 (10 mg/kg) in saline was injected intraperitoneally, twice per week for 2 weeks. AZD4877 (10 mg/kg) was administered by intraperitoneal administration following a q4d schedule. The dimensions of each tumor and body weights were measured at least twice per week. The volume of the tumor was calculated as: Volume=Length×(Width)×0.5 (cm^3).

Tie2 = Tie2 (Homo sapiens, UniProt Q02763); settings: Maisonpierre et al., Science 277:55-60 (1997); read-out: affinity (Kd) for Tie2; cited from earlier work
[1] = test system: glucose 6 phosphate isomerase (G6PI) arthritis; test: G6PI arthritis disease model, therapeutic; assay type: in vivo, male DBA/1J mice; settings: after onset of clinical disease, MEDI1/5 alone, etanercept both doses
Procedure: The effect of treatment with MEDI 1/5 with or without etanercept was evaluated following onset of clinical disease in the glucose 6 phosphate isomerase (G6PI) arthritis disease model. G6PI-induced arthritis was induced in male DBA/1J mice and animals dosed therapeutically with test treatments.
Materials and Methods: The mice in this study were prepared similarly as presented in Example 12.
Dosing: This was a rolling admissions study: once an animal reached a clinical score of 3.5 to 5.0, it was randomly assigned to treatment groups (as outlined below) and dosing began. The day of initial dosing became study day 0 for that animal. Treatment groups were similar to those presented in Example 12.
Termination: Study was terminated 12 days post treatment initiation. No further endpoints were assessed on these animals.

[2] = test system: glucose 6 phosphate isomerase (G6PI) arthritis; test: G6PI arthritis disease model, prophylactic; assay type: in vivo, male DBA/1J mice; settings: for clinical signs of disease progression (arthritic score) (in words): single agents
Ang-2 = molecular target: T1, Ang-2 (Homo sapiens, UniProt O15123); test: Competitive Tie-2 Fc/Ang2 ELISA; assay type: binding; settings: competition with immobilized Tie-2; IgG1 or IgG2 format
T1 construct: purchased R & D Systems
T1 sequence (O15123 19-496): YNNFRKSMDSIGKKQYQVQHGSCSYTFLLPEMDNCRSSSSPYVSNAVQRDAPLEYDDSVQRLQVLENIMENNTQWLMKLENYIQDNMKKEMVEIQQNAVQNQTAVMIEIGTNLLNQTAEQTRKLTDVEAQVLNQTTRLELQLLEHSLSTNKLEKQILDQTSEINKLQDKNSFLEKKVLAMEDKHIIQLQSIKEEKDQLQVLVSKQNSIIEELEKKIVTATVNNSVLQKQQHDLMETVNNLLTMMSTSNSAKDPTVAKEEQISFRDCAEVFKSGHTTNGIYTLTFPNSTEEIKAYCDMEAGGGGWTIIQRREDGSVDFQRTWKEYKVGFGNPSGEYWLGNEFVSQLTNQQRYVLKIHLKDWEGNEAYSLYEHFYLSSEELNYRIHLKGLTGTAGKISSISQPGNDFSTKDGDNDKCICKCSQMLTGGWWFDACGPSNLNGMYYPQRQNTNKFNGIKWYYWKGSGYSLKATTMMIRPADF
Procedure: In this example the Ang-2 antibody, 3.19.3, and a modified 3.19.3 antibody comprising a C49T (MEDI1/5) substitution were analyzed for Ang-2 binding in a competitive ELISA format assay.
Competitive Tie-2 Fc/Ang2 ELISA: Maxisorp ELISA plates (Nunc, Rochester, N.Y.) were coated with 100 μl of 4 μg/ml Tie-2 Fc (R & D Systems, Minneapolis, Minn.) in 0.1M carbonate buffer pH 9.4 (Pierce, Rockford, Ill.) and incubated overnight at 4° C. The following day, plates were blocked for 1 hour at room temperature with 200 μl of phosphate buffered saline (PBS) (Invitrogen, Carlsbad, Calif.) containing 0.5% bovine serum albumin (BSA) (Sigma, St. Louis, Mo.) and 0.1% Tween-20 (Sigma, St. Louis, Mo.). Plates were washed 3 times with wash buffer (PBS containing 0.05% Tween-20). 50 μl of 11-point serial tertiary dilutions (30 μg/ml high concentration) of 3.19.3 or modified anti-Ang2 antibody were plated, with PBS as a negative control. For antibody capture, 50 μl of 200 ng/ml Biotin Ang2 (R & D Systems, Minneapolis, Minn.) were added and plates were incubated for 2 hours at room temperature. Plates were washed 3 times with wash buffer. Following the wash, 100 ul of 1:5000 streptavidin HRP (Pierce, Rockford, Ill.) dilution in wash buffer were added and incubated for 1 hour at room temperature. […] Optical densities were measured at 450 nm with a microplate reader (Molecular Devices, Sunnyvale, Calif.).

[3] = test system: FGF2 mediated angiogenesis; test: FGF2-induced Matrigel plug assay; assay type: in vivo, athymic mouse
Procedure: The anti-Ang-2 antibody, MEDI1/5 was evaluated for anti-angiogenic effects in a FGF2 (basic FGF)-induced Matrigel™ plug assay. Recombinant murine FGF2 (rmFGF basic; R&D Systems) was pre-mixed with Matrigel™ (reduced growth factor, phenol red-free; Trevigen) at 1 μg/ml. Each 5-6 week old female athymic mouse was subcutaneously implanted with 500 gl of FGF2/Matrigel™ mixture. Antibody MEDI1/5 was administered 10 minutes prior to FGF2/Matrigel™ implantation and continued every three days given intraperitoneal at 1, 10, and 20 mg/kg for a total of 3 doses. The extent of angiogenesis was assessed after 10 days by measuring dextran functioning vessels. Mice were intervenously injected with 100 gl FITC-Dextran (250,000MW; Sigma) at 25 mg/ml in saline. Twenty minutes post FITC-Dextran injection, mice are humanely euthanized and plugs dissected out. Plugs are then placed in lysing matrix tubes A (MP Biomedicals) containing 1 ml of PBS and homogenized on FastPrep machine (MP Biomedicals) for 60 seconds at 6.0 M/S. Samples were then centrifuged at 10,000 rpm for 5 minutes and supernatant collected. 200 μl of each sample (in duplicates) was then placed into a white, clear bottom 96 well plate and FITC output was read on EnVision instrument (Perkin Elmer).
For histology purposes, plugs were harvested and placed into 10% neutral-buffered formalin, processed and then paraffin embedded. The paraffin embedded tissues were then sectioned and stained with hematoxylin and eosin.

retinal angiogenesis = test: Retinal vascularization in mouse pups; assay type: in vivo, CD1 pups
Procedure: […] At p10, pups were anesthetized with isoflurane and then perfused with 12.5 mg/ml FITC-dextran (Vector Labs). A small slit was made in the cornea and the entire eye was removed from the optic cup before placing into 10% neutral buffered formalin. After 1 hour fixation in formalin, eyes were briefly rinsed in PBS and then placed in a dish of PBS for dissection. Retinas were carefully dissected and cut into a clover leaf formation prior to mounting onto a glass slide with Vectashield (Vector Labs). Images of flatmounts were examined and acquired using fluorescence microscopy (Nikon) with attached digital camera system.

Chain of Tie2 (Q02763 23-1124, species assumed): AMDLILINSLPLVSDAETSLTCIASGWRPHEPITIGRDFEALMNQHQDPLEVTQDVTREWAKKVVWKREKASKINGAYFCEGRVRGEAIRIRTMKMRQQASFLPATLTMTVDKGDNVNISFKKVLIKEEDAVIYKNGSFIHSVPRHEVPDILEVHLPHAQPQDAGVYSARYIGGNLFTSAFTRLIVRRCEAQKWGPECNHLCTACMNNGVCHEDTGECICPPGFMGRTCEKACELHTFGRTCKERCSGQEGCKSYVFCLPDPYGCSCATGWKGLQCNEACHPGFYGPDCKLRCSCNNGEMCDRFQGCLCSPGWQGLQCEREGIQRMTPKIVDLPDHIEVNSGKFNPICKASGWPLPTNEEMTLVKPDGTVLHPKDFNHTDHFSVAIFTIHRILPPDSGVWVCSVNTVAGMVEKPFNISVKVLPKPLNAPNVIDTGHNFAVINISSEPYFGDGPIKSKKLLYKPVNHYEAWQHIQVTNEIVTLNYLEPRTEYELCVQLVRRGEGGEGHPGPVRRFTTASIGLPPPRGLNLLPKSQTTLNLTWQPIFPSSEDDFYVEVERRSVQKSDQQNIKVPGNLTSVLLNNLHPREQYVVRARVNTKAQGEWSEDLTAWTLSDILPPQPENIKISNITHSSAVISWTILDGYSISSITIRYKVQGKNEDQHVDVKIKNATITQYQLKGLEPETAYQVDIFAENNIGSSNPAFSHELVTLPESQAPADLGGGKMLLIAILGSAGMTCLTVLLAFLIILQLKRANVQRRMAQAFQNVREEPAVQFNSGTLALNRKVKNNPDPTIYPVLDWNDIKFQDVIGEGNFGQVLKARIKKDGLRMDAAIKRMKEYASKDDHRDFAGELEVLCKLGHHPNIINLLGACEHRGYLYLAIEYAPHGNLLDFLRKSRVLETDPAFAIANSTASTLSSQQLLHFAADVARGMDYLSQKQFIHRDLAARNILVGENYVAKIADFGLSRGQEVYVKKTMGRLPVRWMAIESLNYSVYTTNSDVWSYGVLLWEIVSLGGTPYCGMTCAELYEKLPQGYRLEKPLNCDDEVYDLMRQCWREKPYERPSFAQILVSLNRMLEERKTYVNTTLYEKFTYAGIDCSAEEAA

Molecule: Cc1ccc(C(=O)N(CCCN)C(c2nc3snc(C)c3c(=O)n2Cc2ccccc2)C(C)C)cc1 (centres unmarked) [AZD4877]
- % tumor growth inhibition (H460 xenograft tumors): 50%

Molecule: Ang-2: angiopoietin, ligand of Tie2; antigen of the antibodies
- Kd (Tie2): 3 nM

Molecule: etanercept
- clinical signs of disease progression (arthritic score) (in words) [1]: no effect on disease progression
- % Disease free joints ([2]; 1 mg/kg etanercept, 1 mg/kg): 22%
- % Disease free joints ([2]; 4 mg/kg etanercept, 4 mg/kg): 53%
- % Disease free joints ([2]; 4 mg/kg etanercept, listed as enbrel, 4 mg/kg): 53%
- clinical signs of disease progression (arthritic score) (in words) [2]: Reductions in clinical signs of disease progression; also recorded: reduction

B1: MEDI1/5: anti-Ang-2 antibody with MEDI1 light chain (SEQ ID No. 3) and MEDI5 heavy chain (SEQ ID No. 7); isotype not stated (antibody)
VH: QVQLVESGGGVVQPGRSLRLSCAASGFTFTNYGMHWVRQAPGKGLEWVAVISHDGNNKYYVDSVKGRFTISRDNSKNTLYLQMNSLRAEDTAVYYCAREGIDFWSGLNWFDPWGQGTLVTVSS
light: EIVLTQSPGTLSLSPGERATLSCRASQSITGSYLAWYQQKPGQAPRLLITGASSWATGIPDRFSGSGSGTDFTLTISRLEPEDFAVYYCQQYSSSPITFGQGTRLEIKRTVAAPSVFIFPPSDEQLKSGTASVVCLLNNFYPREAKVQWKVDNALQSGNSQESVTEQDSKDSTYSLSSTLTLSKADYEKHKVYACEVTHQGLSSPVTKSFNRGEC
- binding profile for Ang-2 compared to 3.19.3 (in words) (Ang-2): very similar binding profile
- clinical signs of disease progression (arthritic score) (in words) [1]: modest reductions in clinical signs of disease progression
- vessels in plugs, hematoxylin and eosin staining (in words) ([3]; FGF2+MEDI1/5 plugs vs FGF2 plugs alone): fewer vessels; also recorded: lower level of vascularization
- amount of FITC-dextran present in plugs ([3]; MEDI1/5 1, 10, and 20 mg/kg i.p., 3 doses, FGF2 1 μg/ml plugs (FGF2 alone approximately 0.78 μg)): 0.05 to 3 µg
- FITC-dextran content / angiogenesis in plugs (in words) ([3]; MEDI1/5 1, 10 or 20 mg/kg i.p., vs FGF2 plugs): significant reduction in FITC-dextran; also recorded: significant reduction in angiogenesis
- extent of retina vasculature (in words) (retinal angiogenesis; MEDI1/5 0.3 mg/kg): extend to the outer edge of retina
- retinal angiogenesis (in words) (retinal angiogenesis; MEDI1/5 0.3, 1.0 and 10 mg/kg i.p. at p1, p3, p5, retinas at p10): dose-dependent inhibition of retinal angiogenesis; also recorded: inhibited in a dose-dependent fashion
- % Disease free joints ([2]; 10 mg/kg MEDI1/5, 10 mg/ml Isotype control (so in the source), 10 mg/kg): 31%
- clinical signs of disease progression (arthritic score) (in words) [2]: Reductions in clinical signs of disease progression; also recorded: reduction

B2: Ang-1: angiopoietin, ligand of Tie2 (protein, UniProt Q15389 16-498, looked up)
Angiopoietin-1: HIGCSNQRRSPENSGRRYNRIQHGQCAYTFILPEHDGNCRESTTDQYNTNALQRDAPHVEPDFSSQKLQHLEHVMENYTQWLQKLENYIVENMKSEMAQIQQNAVQNHTATMLEIGTSLLSQTAEQTRKLTDVETQVLNQTSRLEIQLLENSLSTYKLEKQLLQQTNEILKIHEKNSLLEHKILEMEGKHKEELDTLKEEKENLQGLVTRQTYIIQELEKQLNRATTNNSVLQKQQLELMDTVHNLVNLCTKEGVLLKGGKREEEKPFRDCADVYQAGFNKSGIYTIYINNMPEPKKVFCNMDVNGGGWTVIQHREDGSLDFQRGWKEYKMGFGNPSGEYWLGNEFIFAITSQRQYMLRIELMDWEGNRAYSQYDRFHIGNEKQNYRLYLKGHTGTAGKQSSLILHGADFSTKDADNDNCMCKCALMLTGGWWFDACGPSNLNGMFYTAGQNHGKLNGIKWHYFKGPSYSLRSTTMMIRPLDF
- Kd (Tie2): 3 nM
